Measured values: patent publication US20140087995A1 (published 2014)
Numbered stars: 1 amine (or outer) side, 2 acyl side, 3 side chain; on linkers, the order of the positions; unused ones are H or OH. Bridge positions count the residues as written; N and C are the ends. Side chains are listed from the residue outwards. Ends that are not written are not given here. * marks the point of attachment. C20 diacid = O=C(O)CCCCCCCCCCCCCCCCCCC(=O)*; γGlu = O=C(O)[C@H](CCC(=O)[*:2])N[*:1]; AEEA = NCCOCCOCC(=O)O

T1: human amylin 3(a) receptor (human calcitonin receptor co-expressed with RAMP-3) (human, UniProt P30988 25-474; O60896 24-148, limits assumed)
T1 sequence (looked up) 1: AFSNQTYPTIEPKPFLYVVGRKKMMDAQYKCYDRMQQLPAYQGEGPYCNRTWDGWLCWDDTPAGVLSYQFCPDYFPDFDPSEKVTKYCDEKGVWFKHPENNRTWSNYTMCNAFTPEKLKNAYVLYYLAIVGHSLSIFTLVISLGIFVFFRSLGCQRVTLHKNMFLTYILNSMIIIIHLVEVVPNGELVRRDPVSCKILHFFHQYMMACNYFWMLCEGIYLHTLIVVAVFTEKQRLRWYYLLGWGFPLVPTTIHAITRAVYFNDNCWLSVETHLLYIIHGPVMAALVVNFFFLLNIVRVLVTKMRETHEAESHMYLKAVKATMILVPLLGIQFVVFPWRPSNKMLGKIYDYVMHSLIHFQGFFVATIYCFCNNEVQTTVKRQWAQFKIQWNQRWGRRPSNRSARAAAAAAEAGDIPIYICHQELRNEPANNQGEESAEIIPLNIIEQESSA
T1 sequence (looked up) 2: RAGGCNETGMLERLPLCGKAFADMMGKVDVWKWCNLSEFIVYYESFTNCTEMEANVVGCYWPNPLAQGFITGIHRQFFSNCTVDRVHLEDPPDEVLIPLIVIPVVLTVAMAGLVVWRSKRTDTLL

B1: N^ε1-[2-[2-[2-[[(4S)-4-carboxy-4-(19-carboxynonadecanoylamino)butanoyl]amino]ethoxy]ethoxy]acetyl]-[Arg14,Arg17,Pro21,Pro27]-h-amylin (peptide)
peptide: K([AEEA-γGlu-C20 diacid])CNTATCATQRLARFLRHSSPNFGAIPSSTNVGSNTY-NH2
modifications: disulfide 2-7; N-terminus assumed
SMILES: CC[C@H](C)[C@H](NC(=O)[C@H](C)NC(=O)CNC(=O)[C@H](Cc1ccccc1)NC(=O)[C@H](CC(N)=O)NC(=O)[C@@H]1CCCN1C(=O)[C@H](CO)NC(=O)[C@H](CO)NC(=O)[C@H](Cc1c[nH]cn1)NC(=O)[C@H](CCCNC(=N)N)NC(=O)[C@H](CC(C)C)NC(=O)[C@H](Cc1ccccc1)NC(=O)[C@H](CCCNC(=N)N)NC(=O)[C@H](C)NC(=O)[C@H](CC(C)C)NC(=O)[C@H](CCCNC(=N)N)NC(=O)[C@H](CCC(N)=O)NC(=O)[C@@H](NC(=O)[C@H](C)NC(=O)[C@@H]1CSSC[C@H](NC(=O)[C@@H](N)CCCCNC(=O)COCCOCCNC(=O)CC[C@H](NC(=O)CCCCCCCCCCCCCCCCCCC(=O)O)C(=O)O)C(=O)N[C@@H](CC(N)=O)C(=O)N[C@@H]([C@@H](C)O)C(=O)N[C@@H](C)C(=O)N[C@@H]([C@@H](C)O)C(=O)N1)[C@@H](C)O)C(=O)N1CCC[C@H]1C(=O)N[C@@H](CO)C(=O)N[C@@H](CO)C(=O)N[C@H](C(=O)N[C@@H](CC(N)=O)C(=O)N[C@H](C(=O)NCC(=O)N[C@@H](CO)C(=O)N[C@@H](CC(N)=O)C(=O)N[C@H](C(=O)N[C@@H](Cc1ccc(O)cc1)C(N)=O)[C@@H](C)O)C(C)C)[C@@H](C)O
notes: also called compound 82
B2: N^ε1-[2-[2-[2-[[(4S)-4-carboxy-4-(19-carboxynonadecanoylamino)butanoyl]amino]ethoxy]ethoxy]acetyl]-[Arg17,Pro21,Pro27,Pro28,Pro34]-h-amylin (peptide)
peptide: K([AEEA-γGlu-C20 diacid])CNTATCATQRLANFLRHSSPNFGAIPPSTNVGPNTY-NH2
modifications: disulfide 2-7; N-terminus assumed
SMILES: CC[C@H](C)[C@H](NC(=O)[C@H](C)NC(=O)CNC(=O)[C@H](Cc1ccccc1)NC(=O)[C@H](CC(N)=O)NC(=O)[C@@H]1CCCN1C(=O)[C@H](CO)NC(=O)[C@H](CO)NC(=O)[C@H](Cc1c[nH]cn1)NC(=O)[C@H](CCCNC(=N)N)NC(=O)[C@H](CC(C)C)NC(=O)[C@H](Cc1ccccc1)NC(=O)[C@H](CC(N)=O)NC(=O)[C@H](C)NC(=O)[C@H](CC(C)C)NC(=O)[C@H](CCCNC(=N)N)NC(=O)[C@H](CCC(N)=O)NC(=O)[C@@H](NC(=O)[C@H](C)NC(=O)[C@@H]1CSSC[C@H](NC(=O)[C@@H](N)CCCCNC(=O)COCCOCCNC(=O)CC[C@H](NC(=O)CCCCCCCCCCCCCCCCCCC(=O)O)C(=O)O)C(=O)N[C@@H](CC(N)=O)C(=O)N[C@@H]([C@@H](C)O)C(=O)N[C@@H](C)C(=O)N[C@@H]([C@@H](C)O)C(=O)N1)[C@@H](C)O)C(=O)N1CCC[C@H]1C(=O)N1CCC[C@H]1C(=O)N[C@@H](CO)C(=O)N[C@H](C(=O)N[C@@H](CC(N)=O)C(=O)N[C@H](C(=O)NCC(=O)N1CCC[C@H]1C(=O)N[C@@H](CC(N)=O)C(=O)N[C@H](C(=O)N[C@@H](Cc1ccc(O)cc1)C(N)=O)[C@@H](C)O)C(C)C)[C@@H](C)O
notes: also called compound 55
B3: N^ε1-[2-[2-[2-[[(4S)-4-carboxy-4-(19-carboxynonadecanoylamino)butanoyl]amino]ethoxy]ethoxy]acetyl]-[Arg17,Pro21,Pro27,Glu35]-h-amylin (peptide)
peptide: K([AEEA-γGlu-C20 diacid])CNTATCATQRLANFLRHSSPNFGAIPSSTNVGSETY-NH2
modifications: disulfide 2-7; N-terminus assumed
SMILES: CC[C@H](C)[C@H](NC(=O)[C@H](C)NC(=O)CNC(=O)[C@H](Cc1ccccc1)NC(=O)[C@H](CC(N)=O)NC(=O)[C@@H]1CCCN1C(=O)[C@H](CO)NC(=O)[C@H](CO)NC(=O)[C@H](Cc1c[nH]cn1)NC(=O)[C@H](CCCNC(=N)N)NC(=O)[C@H](CC(C)C)NC(=O)[C@H](Cc1ccccc1)NC(=O)[C@H](CC(N)=O)NC(=O)[C@H](C)NC(=O)[C@H](CC(C)C)NC(=O)[C@H](CCCNC(=N)N)NC(=O)[C@H](CCC(N)=O)NC(=O)[C@@H](NC(=O)[C@H](C)NC(=O)[C@@H]1CSSC[C@H](NC(=O)[C@@H](N)CCCCNC(=O)COCCOCCNC(=O)CC[C@H](NC(=O)CCCCCCCCCCCCCCCCCCC(=O)O)C(=O)O)C(=O)N[C@@H](CC(N)=O)C(=O)N[C@@H]([C@@H](C)O)C(=O)N[C@@H](C)C(=O)N[C@@H]([C@@H](C)O)C(=O)N1)[C@@H](C)O)C(=O)N1CCC[C@H]1C(=O)N[C@@H](CO)C(=O)N[C@@H](CO)C(=O)N[C@H](C(=O)N[C@@H](CC(N)=O)C(=O)N[C@H](C(=O)NCC(=O)N[C@@H](CO)C(=O)N[C@@H](CCC(=O)O)C(=O)N[C@H](C(=O)N[C@@H](Cc1ccc(O)cc1)C(N)=O)[C@@H](C)O)C(C)C)[C@@H](C)O
notes: also called compound 26
B4: N^ε1-[2-[2-[2-[[(4S)-4-carboxy-4-(19-carboxynonadecanoylamino)butanoyl]amino]ethoxy]ethoxy]acetyl]-[Arg17,Pro21,Pro27,His34]-h-amylin (peptide)
peptide: K([AEEA-γGlu-C20 diacid])CNTATCATQRLANFLRHSSPNFGAIPSSTNVGHNTY-NH2
modifications: disulfide 2-7; N-terminus assumed
SMILES: CC[C@H](C)[C@H](NC(=O)[C@H](C)NC(=O)CNC(=O)[C@H](Cc1ccccc1)NC(=O)[C@H](CC(N)=O)NC(=O)[C@@H]1CCCN1C(=O)[C@H](CO)NC(=O)[C@H](CO)NC(=O)[C@H](Cc1c[nH]cn1)NC(=O)[C@H](CCCNC(=N)N)NC(=O)[C@H](CC(C)C)NC(=O)[C@H](Cc1ccccc1)NC(=O)[C@H](CC(N)=O)NC(=O)[C@H](C)NC(=O)[C@H](CC(C)C)NC(=O)[C@H](CCCNC(=N)N)NC(=O)[C@H](CCC(N)=O)NC(=O)[C@@H](NC(=O)[C@H](C)NC(=O)[C@@H]1CSSC[C@H](NC(=O)[C@@H](N)CCCCNC(=O)COCCOCCNC(=O)CC[C@H](NC(=O)CCCCCCCCCCCCCCCCCCC(=O)O)C(=O)O)C(=O)N[C@@H](CC(N)=O)C(=O)N[C@@H]([C@@H](C)O)C(=O)N[C@@H](C)C(=O)N[C@@H]([C@@H](C)O)C(=O)N1)[C@@H](C)O)C(=O)N1CCC[C@H]1C(=O)N[C@@H](CO)C(=O)N[C@@H](CO)C(=O)N[C@H](C(=O)N[C@@H](CC(N)=O)C(=O)N[C@H](C(=O)NCC(=O)N[C@@H](Cc1c[nH]cn1)C(=O)N[C@@H](CC(N)=O)C(=O)N[C@H](C(=O)N[C@@H](Cc1ccc(O)cc1)C(N)=O)[C@@H](C)O)C(C)C)[C@@H](C)O
notes: also called compound 76
B5: N^ε1-[2-[2-[2-[[(4S)-4-carboxy-4-(19-carboxynonadecanoylamino)butanoyl]amino]ethoxy]ethoxy]acetyl]-[Arg17,Pro21,Pro27,Pro31,His35]-h-amylin (peptide)
peptide: K([AEEA-γGlu-C20 diacid])CNTATCATQRLANFLRHSSPNFGAIPSSTPVGSHTY-NH2
modifications: disulfide 2-7; N-terminus assumed
SMILES: CC[C@H](C)[C@H](NC(=O)[C@H](C)NC(=O)CNC(=O)[C@H](Cc1ccccc1)NC(=O)[C@H](CC(N)=O)NC(=O)[C@@H]1CCCN1C(=O)[C@H](CO)NC(=O)[C@H](CO)NC(=O)[C@H](Cc1c[nH]cn1)NC(=O)[C@H](CCCNC(=N)N)NC(=O)[C@H](CC(C)C)NC(=O)[C@H](Cc1ccccc1)NC(=O)[C@H](CC(N)=O)NC(=O)[C@H](C)NC(=O)[C@H](CC(C)C)NC(=O)[C@H](CCCNC(=N)N)NC(=O)[C@H](CCC(N)=O)NC(=O)[C@@H](NC(=O)[C@H](C)NC(=O)[C@@H]1CSSC[C@H](NC(=O)[C@@H](N)CCCCNC(=O)COCCOCCNC(=O)CC[C@H](NC(=O)CCCCCCCCCCCCCCCCCCC(=O)O)C(=O)O)C(=O)N[C@@H](CC(N)=O)C(=O)N[C@@H]([C@@H](C)O)C(=O)N[C@@H](C)C(=O)N[C@@H]([C@@H](C)O)C(=O)N1)[C@@H](C)O)C(=O)N1CCC[C@H]1C(=O)N[C@@H](CO)C(=O)N[C@@H](CO)C(=O)N[C@H](C(=O)N1CCC[C@H]1C(=O)N[C@H](C(=O)NCC(=O)N[C@@H](CO)C(=O)N[C@@H](Cc1c[nH]cn1)C(=O)N[C@H](C(=O)N[C@@H](Cc1ccc(O)cc1)C(N)=O)[C@@H](C)O)C(C)C)[C@@H](C)O
notes: also called compound 57
B6: N^ε1-[2-[2-[2-[[(4S)-4-carboxy-4-(19-carboxynonadecanoylamino)butanoyl]amino]ethoxy]ethoxy]acetyl]-[Arg17,Pro21,Pro27,Arg34]-h-amylin (peptide)
peptide: K([AEEA-γGlu-C20 diacid])CNTATCATQRLANFLRHSSPNFGAIPSSTNVGRNTY-NH2
modifications: disulfide 2-7; N-terminus assumed
SMILES: CC[C@H](C)[C@H](NC(=O)[C@H](C)NC(=O)CNC(=O)[C@H](Cc1ccccc1)NC(=O)[C@H](CC(N)=O)NC(=O)[C@@H]1CCCN1C(=O)[C@H](CO)NC(=O)[C@H](CO)NC(=O)[C@H](Cc1c[nH]cn1)NC(=O)[C@H](CCCNC(=N)N)NC(=O)[C@H](CC(C)C)NC(=O)[C@H](Cc1ccccc1)NC(=O)[C@H](CC(N)=O)NC(=O)[C@H](C)NC(=O)[C@H](CC(C)C)NC(=O)[C@H](CCCNC(=N)N)NC(=O)[C@H](CCC(N)=O)NC(=O)[C@@H](NC(=O)[C@H](C)NC(=O)[C@@H]1CSSC[C@H](NC(=O)[C@@H](N)CCCCNC(=O)COCCOCCNC(=O)CC[C@H](NC(=O)CCCCCCCCCCCCCCCCCCC(=O)O)C(=O)O)C(=O)N[C@@H](CC(N)=O)C(=O)N[C@@H]([C@@H](C)O)C(=O)N[C@@H](C)C(=O)N[C@@H]([C@@H](C)O)C(=O)N1)[C@@H](C)O)C(=O)N1CCC[C@H]1C(=O)N[C@@H](CO)C(=O)N[C@@H](CO)C(=O)N[C@H](C(=O)N[C@@H](CC(N)=O)C(=O)N[C@H](C(=O)NCC(=O)N[C@@H](CCCNC(=N)N)C(=O)N[C@@H](CC(N)=O)C(=O)N[C@H](C(=O)N[C@@H](Cc1ccc(O)cc1)C(N)=O)[C@@H](C)O)C(C)C)[C@@H](C)O
notes: also called compound 78

Target: T1, human amylin 3(a) receptor (human …)
Test: cell-based or functional assay

| Binder | Ratio hCT/hAmylin funct. (hCTR EC50 over hAmylin-R EC50) | hAmylin-R funct. EC50 (pM) |
| --- | --- | --- |
| B1 | 59.2 | 215 pM |
| B2 | 10.8 | 68 pM |
| B3 | 29.9 | 212 pM |
| B4 | 24.8 | 297 pM |
| B5 | 35 | 89 pM |
| B6 | 25.8 | 316 pM |
